According to PMC10499821:

Target: Nsp3 ADRP (SARS-CoV-2) (UniProt P0DTD1)
Assay: fluorescence polarisation

B1: PARP10_(700–715) (peptide)
peptide: DGGTDGKAQLVVHSA
Kd: 300 µM
